Data taken from patent publication US20210163900.

Tested on: T1, MTA1c (MTA1/MTA9/p1/p2 complex) (Tetrahymena thermophila)
T1 sequence 1: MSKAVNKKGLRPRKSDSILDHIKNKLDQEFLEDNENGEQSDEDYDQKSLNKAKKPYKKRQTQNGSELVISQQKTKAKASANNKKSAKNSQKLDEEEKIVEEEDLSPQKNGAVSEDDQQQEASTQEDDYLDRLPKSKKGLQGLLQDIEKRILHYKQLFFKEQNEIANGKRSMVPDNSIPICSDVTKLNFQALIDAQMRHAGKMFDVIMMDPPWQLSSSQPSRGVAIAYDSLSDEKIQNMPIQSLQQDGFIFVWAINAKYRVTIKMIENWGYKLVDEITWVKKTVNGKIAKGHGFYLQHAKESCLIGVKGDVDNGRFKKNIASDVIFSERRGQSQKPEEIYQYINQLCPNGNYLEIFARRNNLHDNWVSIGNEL
T1 sequence 2: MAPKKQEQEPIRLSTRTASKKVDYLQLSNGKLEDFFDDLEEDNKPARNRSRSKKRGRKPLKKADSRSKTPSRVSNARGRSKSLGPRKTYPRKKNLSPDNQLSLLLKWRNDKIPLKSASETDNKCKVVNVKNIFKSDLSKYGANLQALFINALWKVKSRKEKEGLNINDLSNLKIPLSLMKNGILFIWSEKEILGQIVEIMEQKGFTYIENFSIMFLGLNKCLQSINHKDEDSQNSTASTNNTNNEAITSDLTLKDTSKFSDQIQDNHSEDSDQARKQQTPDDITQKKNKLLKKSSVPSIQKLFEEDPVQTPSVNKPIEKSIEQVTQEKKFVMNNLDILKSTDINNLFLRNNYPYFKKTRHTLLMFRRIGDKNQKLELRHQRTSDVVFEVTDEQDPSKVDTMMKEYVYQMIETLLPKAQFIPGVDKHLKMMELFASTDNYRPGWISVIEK
T1 sequence 3: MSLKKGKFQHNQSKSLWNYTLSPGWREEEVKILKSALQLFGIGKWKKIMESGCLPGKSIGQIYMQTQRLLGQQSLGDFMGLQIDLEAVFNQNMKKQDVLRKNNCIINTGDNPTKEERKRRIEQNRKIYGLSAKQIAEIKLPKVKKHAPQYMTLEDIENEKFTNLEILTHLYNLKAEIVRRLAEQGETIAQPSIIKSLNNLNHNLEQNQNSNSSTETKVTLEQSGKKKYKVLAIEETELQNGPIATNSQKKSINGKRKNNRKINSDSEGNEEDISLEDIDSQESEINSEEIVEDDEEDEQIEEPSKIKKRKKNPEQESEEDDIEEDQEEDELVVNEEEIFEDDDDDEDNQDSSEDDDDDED
T1 sequence 4: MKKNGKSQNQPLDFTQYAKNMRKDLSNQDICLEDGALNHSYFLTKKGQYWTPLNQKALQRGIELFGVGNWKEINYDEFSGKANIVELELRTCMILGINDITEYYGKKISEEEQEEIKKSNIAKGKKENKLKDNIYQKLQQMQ
Settings: [3H]SAM assay, reference substrate

27 bp dsDNA with two ApT motifs
activity (relative activity): 1
